Our source for the ratio to parent values is publication PMC6056499, “A systematic dissection of sequence elements determining β-Klotho and FGF interaction and signaling” (Scientific Reports, 2018).

For this assay, the target named is human β-Klotho extracellular domain (aa1–992) fused with a 6 × His tag at the C-terminus, Q86Z14. Put plainly: solid-phase binding assay. To be noted: chain shown with the change;; parent: est. 1.0; read off a plot.
Chain of human β-Klotho extracellular domain (aa1–992) fused with a 6 × His tag at the C-terminus, Q86Z14 (Q86Z14 53-992): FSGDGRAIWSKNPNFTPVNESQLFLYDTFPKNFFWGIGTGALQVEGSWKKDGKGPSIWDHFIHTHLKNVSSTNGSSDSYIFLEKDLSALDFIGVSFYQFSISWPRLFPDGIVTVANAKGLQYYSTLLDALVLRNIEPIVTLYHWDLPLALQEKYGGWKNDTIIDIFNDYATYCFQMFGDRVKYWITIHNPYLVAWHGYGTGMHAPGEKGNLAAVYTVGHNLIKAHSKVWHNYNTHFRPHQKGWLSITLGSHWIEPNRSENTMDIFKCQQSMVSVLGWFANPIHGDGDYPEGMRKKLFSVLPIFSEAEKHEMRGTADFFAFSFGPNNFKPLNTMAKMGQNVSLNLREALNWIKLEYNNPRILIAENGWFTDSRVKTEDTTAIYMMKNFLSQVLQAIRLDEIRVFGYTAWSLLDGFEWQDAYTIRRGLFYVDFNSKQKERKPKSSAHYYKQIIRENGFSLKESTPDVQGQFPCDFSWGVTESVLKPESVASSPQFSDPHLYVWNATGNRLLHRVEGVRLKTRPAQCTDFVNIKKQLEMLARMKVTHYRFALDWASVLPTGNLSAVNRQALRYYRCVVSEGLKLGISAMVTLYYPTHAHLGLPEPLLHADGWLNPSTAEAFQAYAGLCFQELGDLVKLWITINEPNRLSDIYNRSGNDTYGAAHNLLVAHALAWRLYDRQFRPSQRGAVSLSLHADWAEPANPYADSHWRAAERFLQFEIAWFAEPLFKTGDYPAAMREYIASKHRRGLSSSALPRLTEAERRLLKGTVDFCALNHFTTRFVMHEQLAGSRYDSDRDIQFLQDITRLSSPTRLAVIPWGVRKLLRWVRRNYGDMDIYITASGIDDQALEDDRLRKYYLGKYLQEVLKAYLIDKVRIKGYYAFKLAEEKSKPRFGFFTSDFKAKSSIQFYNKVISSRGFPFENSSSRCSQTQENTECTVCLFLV

B1: mature human FGF21 polypeptide fused with the human Fc fragment at the N-terminus (Fc-FGF21), wild type, Q9NSA1 191S-A (protein)
chain: HPIPDSSPLLQFGGQVRQRYLYTDDAQQTEAHLEIREDGTVGGAADQSPESLLQLKALKPGVIQILGVKTSRFLCQRPDGALYGSLHFDPEACSFRELLLEDGYNVYQSEAHGLPLHLPGNKSPHRDPAPRGPARFLPLPGLPPALPEPPGILAPQPPDVGSADPLSMVGPSQGRSPSYAS
With B1, the ratio to parent is 0.6.

B2: mature human FGF21 polypeptide fused with the human Fc fragment at the N-terminus (Fc-FGF21), wild type, Q9NSA1 204S-R (protein)
chain: HPIPDSSPLLQFGGQVRQRYLYTDDAQQTEAHLEIREDGTVGGAADQSPESLLQLKALKPGVIQILGVKTSRFLCQRPDGALYGSLHFDPEACSFRELLLEDGYNVYQSEAHGLPLHLPGNKSPHRDPAPRGPARFLPLPGLPPALPEPPGILAPQPPDVGSSDPLSMVGPSQGRRPSYAS
As to B2, the ratio to parent came to 250.

B3: mature human FGF21 polypeptide fused with the human Fc fragment at the N-terminus (Fc-FGF21), wild type, Q9NSA1 191S-R (protein)
chain: HPIPDSSPLLQFGGQVRQRYLYTDDAQQTEAHLEIREDGTVGGAADQSPESLLQLKALKPGVIQILGVKTSRFLCQRPDGALYGSLHFDPEACSFRELLLEDGYNVYQSEAHGLPLHLPGNKSPHRDPAPRGPARFLPLPGLPPALPEPPGILAPQPPDVGSRDPLSMVGPSQGRSPSYAS
Take B3: the ratio to parent came to 350.

B4: mature human FGF21 polypeptide fused with the human Fc fragment at the N-terminus (Fc-FGF21), wild type, Q9NSA1 207Y-A (protein)
chain: HPIPDSSPLLQFGGQVRQRYLYTDDAQQTEAHLEIREDGTVGGAADQSPESLLQLKALKPGVIQILGVKTSRFLCQRPDGALYGSLHFDPEACSFRELLLEDGYNVYQSEAHGLPLHLPGNKSPHRDPAPRGPARFLPLPGLPPALPEPPGILAPQPPDVGSSDPLSMVGPSQGRSPSAAS
On to B4, for which the ratio to parent came to 180.

B5: mature human FGF21 polypeptide fused with the human Fc fragment at the N-terminus (Fc-FGF21), wild type, Q9NSA1 204S-A (protein)
chain: HPIPDSSPLLQFGGQVRQRYLYTDDAQQTEAHLEIREDGTVGGAADQSPESLLQLKALKPGVIQILGVKTSRFLCQRPDGALYGSLHFDPEACSFRELLLEDGYNVYQSEAHGLPLHLPGNKSPHRDPAPRGPARFLPLPGLPPALPEPPGILAPQPPDVGSSDPLSMVGPSQGRAPSYAS
As for B5, the ratio to parent stood at 120.

B6: mature human FGF21 polypeptide fused with the human Fc fragment at the N-terminus (Fc-FGF21), wild type, Q9NSA1 206S-A (protein)
chain: HPIPDSSPLLQFGGQVRQRYLYTDDAQQTEAHLEIREDGTVGGAADQSPESLLQLKALKPGVIQILGVKTSRFLCQRPDGALYGSLHFDPEACSFRELLLEDGYNVYQSEAHGLPLHLPGNKSPHRDPAPRGPARFLPLPGLPPALPEPPGILAPQPPDVGSSDPLSMVGPSQGRSPAYAS
Turning to B6, the ratio to parent stood at 120.

B7: mature human FGF21 polypeptide fused with the human Fc fragment at the N-terminus (Fc-FGF21), wild type, Q9NSA1 207Y-R (protein)
chain: HPIPDSSPLLQFGGQVRQRYLYTDDAQQTEAHLEIREDGTVGGAADQSPESLLQLKALKPGVIQILGVKTSRFLCQRPDGALYGSLHFDPEACSFRELLLEDGYNVYQSEAHGLPLHLPGNKSPHRDPAPRGPARFLPLPGLPPALPEPPGILAPQPPDVGSSDPLSMVGPSQGRSPSRAS
For the molecule B7, the ratio to parent is 530.

B8: mature human FGF21 polypeptide fused with the human Fc fragment at the N-terminus (Fc-FGF21), wild type, Q9NSA1 206S-R (protein)
chain: HPIPDSSPLLQFGGQVRQRYLYTDDAQQTEAHLEIREDGTVGGAADQSPESLLQLKALKPGVIQILGVKTSRFLCQRPDGALYGSLHFDPEACSFRELLLEDGYNVYQSEAHGLPLHLPGNKSPHRDPAPRGPARFLPLPGLPPALPEPPGILAPQPPDVGSSDPLSMVGPSQGRSPRYAS
Take B8: the ratio to parent turned out to be 170.
